Our source for the % Change in mean channel intensity values is patent US6600012.

The target of the assay is HLA.A2 on T2 mutant cells. Description: T2 cell HLA.A2 upregulation assay, flow cytometry with MA2.1.

Consider SAPDTRPAP (modifications not checked) […, MUC-1 tandem repeat synthetic 9 mer], for which the % Change in mean channel intensity worked out at 48%.
